{"source": "patent US20260209344A1", "about": "(NONA BIOSCIENCES SUZHOU, published 2026)", "binders": {"B1": {"name": "IMAB362 analogue (antibody, human IgG1, kappa, V domains shown)", "VH": "QVQLQQPGAELVRPGASVKLSCKASGYTFTSYWINWVKQRPGQGLEWIGNIYPSDSYTNYNQKFKDKATLTVDKSSSTAYMQLSSPTSEDSAVYYCTRSWRGNSFDYWGQGTTLTVSS", "VL": "DIVMTQSPSSLTVTAGEKVTMSCKSSQSLLNSGNQKNYLTWYQQKPGQPPKLLIYWASTRESGVPDRFTGSGSGTDFTLTISSVQAEDLAVYYCQNDYSYPFTFGSGTKLEIKR", "notes": "Home-made positive control; variable region identical to IMAB362, a few amino acids differ in the constant region; also called PR000400"}, "B2": {"name": "PR002725 (antibody, human IgG1, kappa, V domains shown)", "VH": "EVQLLESGGGLVQPGGSLRLSCAASGFTFSGYVMSWVRQAPGKGLEWVSAISGSGGSKYYADSVKGRFTISRDNSKNTLYLQMNSLRAEDTAVYYCAKGDIAVLLFDYWGQGTLVTVSS", "VL": "EMVMTQSPATLSVSPGERATLSCRASQSVSRNLAWFQQKPGQAPRLLIYGASTRATGIPARFSGSGSGTEFTLTISSLQSEDFAVYYCQQYNNWPLTFGGGTKVEIKR", "notes": "Human IgG1/kappa; also called clone 11C12-13C2"}, "B3": {"name": "PR002727 (antibody, human IgG1, kappa, V domains shown)", "VH": "EVQLVESGGGVVQPGRSLRLSCAASGFTFSSYGMHWVRQAPGKGLEWVAVIWYDGSNKYYADSVKGRFTISRDNSKNTLYLQMNSLRAEDTAVYYCAKDGYYGSGTYYYYVMNAWGQGASVTVSS", "VL": "B2 VL with M2I, A19V, R31S, F36Y, N93Y", "notes": "Human IgG1/kappa; also called clone 31H3E2"}, "B4": {"name": "PR003897 (antibody, human IgG1, kappa)", "heavy": "QVQLVESGGGLVQPGGSLRLSCATSGFTFSSYAMSWVRQAPGKGLEWVSLISGSGGSPYYADSVKGRFTISRDNSKNTLYLQMNSLRAEDTAVYYCAKGVVNWGSLFDYWGQGTLVTVSSASTKGPSVFPLAPSSKSTSGGTAALGCLVKDYFPEPVTVSWNSGALTSGVHTFPAVLQSSGLYSLSSVVTVPSSSLGTQTYICNVNHKPSNTKVDKKVEPKSCDKTHTCPPCPAPELLGGPDVFLFPPKPKDTLMISRTPEVTCVVVDVSHEDPEVQFNWYVDGVEVHNAKTKPREEQFNSTFRVVSVLTVVHQDWLNGKEYKCKVSNKALPAPEEKTISKTKGQPREPQVYTLPPSREEMTKNQVSLTCLVKGFYPSDIAVEWESNGQPENNYKTTPPMLDSDGSFFLYSKLTVDKSRWQQGNVFSCSVMHEALHNHYTQKSLSLSPGK", "light": "not shown"}, "B5": {"name": "PR003292 (antibody, human IgG1, kappa)", "heavy": "EVQLLESGGGLVQPGGSLRLSCAASGFTFSSFVMSWVRQAPGKGLEWVSTISGSGRSTYYADSVKGRFTISRDNSKNTLHLQMNSLRAEDTAVYYCAKDAAAAGTKFDYWGQGTLVTVSSASTKGPSVFPLAPSSKSTSGGTAALGCLVKDYFPEPVTVSWNSGALTSGVHTFPAVLQSSGLYSLSSVVTVPSSSLGTQTYICNVNHKPSNTKVDKKVEPKSCDKTHTCPPCPAPELLGGPSVFLFPPKPKDTLYITREPEVTCVVVDVSHEDPEVKFNWYVDGVEVHNAKTKPREEQYNSTYRVVSVLTVLHQDWLNGKEYKCKVSNKALPAPIEKTISKAKGQPREPQVYTLPPSREEMTKNQVSLTCLVKGFYPSDIAVEWESNGQPENNYKTTPPVLDSDGSFFLYSKLTVDKSRWQQGNVFSCSVMHEALHNHYTQKSLSLSPGK", "light": "not shown"}, "B6": {"name": "PR003293 (antibody, human IgG1, kappa)", "heavy": "B5 heavy with S242D, I335E", "light": "not shown"}, "B7": {"name": "PR003340 (antibody, human IgG1, kappa)", "heavy": "EVQLLESGGGLVQPGGSLRLSCAASGFTFSSFVMSWVRQAPGKGLEWVSTISGSGRSTYYADSVKGRFTISRDNSKNTLHLQMNSLRAEDTAVYYCAKDAAAAGTKFDYWGQGTLVTVSSASTKGPSVFPLAPSSKSTSGGTAALGCLVKDYFPEPVTVSWNSGALTSGVHTFPAVLQSSGLYSLSSVVTVPSSSLGTQTYICNVNHKPSNTKVDKKVEPKSCDKTHTCPPCPAPELLGGPDVFLFPPKPKDTLMISRTPEVTCVVVDVSHEDPEVQFNWYVDGVEVHNAKTKPREEQFNSTFRVVSVLTVVHQDWLNGKEYKCKVSNKALPAPEEKTISKTKGQPREPQVYTLPPSREEMTKNQVSLTCLVKGFYPSDIAVEWESNGQPENNYKTTPPMLDSDGSFFLYSKLTVDKSRWQQGNVFSCSVMHEALHNHYTQKSLSLSPGK", "light": "not shown"}}, "key": {"[1]": {"molecular_target": "human CLDN18.2 (claudin 18.2) (human)", "assay": "cell-based or functional assay"}, "[2]": {"molecular_target": "T1, human CLDN18.2 (claudin 18.2) (human)", "T1 construct": "HEK293 hCLDN18.2) or endogenously on NUGC4_D8 cells; also called hCLDN18.2; CLD18A2", "assay": "FACS on HEK293 hCLDN18.2 cells, APC anti-human IgG secondary", "protocol": "(§1) The cell density was adjusted to 10⁶ cells/ml, and 50 μl of cell suspension was added to each well of a 96-well plate. Antibodies were diluted to different concentrations with FACS buffer and 50 μl of antibody dilution was added to each well of the 96-well plate. After incubation at 4° C. for 2 hours, the plate was washed 2 times with FACS buffer. […] After incubation at 4° C. for 1 hour, the plate was washed 2 times with FACS buffer. The cells were resuspended with fixative for monitoring the fluorescence of the cells using a FACS machine (ACEA NovoCyte)."}, "[3]": {"molecular_target": "T1, human CLDN18.2 (claudin 18.2)", "assay": "cell-based or functional assay", "remark": "listed apart in the source"}, "[4]": {"molecular_target": "T1, human CLDN18.2 (claudin 18.2)", "assay": "FACS on NUGC4_D8 cells endogenously expressing CLDN18.2", "protocol": "as §1"}, "[5]": {"molecular_target": "T1, human CLDN18.2 (claudin 18.2)", "assay": "cell-based or functional assay", "remark": "listed apart in the source"}, "[6]": {"molecular_target": "T2, human CLDN18.1 (claudin 18.1) (human, UniProt P56856 1-261)", "T2 construct": "whole, on cells; HEK293 hCLDN18.1); also called hCLDN18.1; CLDN18A1", "T2 sequence (P56856 whole entry)": "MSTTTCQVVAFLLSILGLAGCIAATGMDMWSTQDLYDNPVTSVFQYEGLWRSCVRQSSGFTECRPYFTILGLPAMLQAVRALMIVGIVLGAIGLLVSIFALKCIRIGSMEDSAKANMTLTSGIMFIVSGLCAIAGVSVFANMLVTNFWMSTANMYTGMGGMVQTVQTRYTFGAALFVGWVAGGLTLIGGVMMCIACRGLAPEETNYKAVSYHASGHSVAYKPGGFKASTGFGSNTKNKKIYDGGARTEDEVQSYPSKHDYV", "assay": "FACS on HEK293 hCLDN18.1 cells", "protocol": "as §1"}, "[7]": {"molecular_target": "T1, human CLDN18.2 (claudin 18.2)", "assay": "FACS on NUGC4_D8 cells endogenously expressing CLDN18.2", "remark": "listed apart in the source", "protocol": "as §1"}, "[8]": {"molecular_target": "T1, human CLDN18.2 (claudin 18.2)", "assay": "FACS on NUGC4_D8 cells", "protocol": "as §1"}}, "note": "Substitutions are numbered along the chain they refer to."}
{"binder": "B1", "values": [{"measurement": "EC50 (nM), CDC on HEK293 hCLDN18.2 cells", "setting": "[1]", "result": 1.07, "unit": "nM"}, {"measurement": "EC50", "setting": "[2]", "result": 4, "unit": "nM"}, {"measurement": "EC50 (nM), endocytosis in NUGC4_D8 cells (FACS)", "setting": "[3]", "result": 0.4, "unit": "nM"}, {"measurement": "EC50", "setting": "[4]", "result": 20.7, "unit": "nM"}, {"measurement": "EC50 (nM), ADCC with human PBMC on NUGC4_D8 cells", "setting": "[5]", "result": 0.91, "unit": "nM"}]}
{"binder": "B2", "values": [{"measurement": "binding result", "setting": "[6]", "result": "binds"}]}
{"binder": "B3", "values": [{"measurement": "binding result", "setting": "[7]", "result": "binds"}]}
{"binder": "B4", "values": [{"measurement": "binding result", "setting": "[6]", "result": "binds"}, {"measurement": "binding result", "setting": "[8]", "result": "binds"}]}
{"binder": "B5", "values": [{"measurement": "binding result", "setting": "[6]", "result": "binds"}]}
{"binder": "B6", "values": [{"measurement": "binding result", "setting": "[6]", "result": "binds"}]}
{"binder": "B7", "values": [{"measurement": "binding result", "setting": "[6]", "result": "binds"}]}
